# In patent US20190212343A1, “METHODS FOR THE TREATMENT OF DISORDERS RELATED TO PHOSPHORYLATION OF HISTONES” (H. LEE MOFFITT CANCER CENTER AND RESEARCH INSTITUTE, INC., priority 2014, published 2019):
# B1: EGF: EGF ligand used to activate ACK1 (protein, UniProt P01133 23-1207, looked up)
# Pro-epidermal growth factor: PQHWSCPEGTLAGNGNSTCVGPAPFLIFSHGNSIFRIDTEGTNYEQLVVDAGVSVIMDFHYNEKRIYWVDLERQLLQRVFLNGSRQERVCNIEKNVSGMAINWINEEVIWSNQQEGIITVTDMKGNNSHILLSALKYPANVAVDPVERFIFWSSEVAGSLYRADLDGVGVKALLETSEKITAVSLDVLDKRLFWIQYNREGSNSLICSCDYDGGSVHISKHPTQHNLFAMSLFGDRIFYSTWKMKTIWIANKHTGKDMVRINLHSSFVPLGELKVVHPLAQPKAEDDTWEPEQKLCKLRKGNCSSTVCGQDLQSHLCMCAEGYALSRDRKYCEDVNECAFWNHGCTLGCKNTPGSYYCTCPVGFVLLPDGKRCHQLVSCPRNVSECSHDCVLTSEGPLCFCPEGSVLERDGKTCSGCSSPDNGGCSQLCVPLSPVSWECDCFPGYDLQLDEKSCAASGPQPFLLFANSQDIRHMHFDGTDYGTLLSQQMGMVYALDHDPVENKIYFAHTALKWIERANMDGSQRERLIEEGVDVPEGLAVDWIGRRFYWTDRGKSLIGRSDLNGKRSKIITKENISQPRGIAVHPMAKRLFWTDTGINPRIESSSLQGLGRLVIASSDLIWPSGITIDFLTDKLYWCDAKQSVIEMANLDGSKRRRLTQNDVGHPFAVAVFEDYVWFSDWAMPSVMRVNKRTGKDRVRLQGSMLKPSSLVVVHPLAKPGADPCLYQNGGCEHICKKRLGTAWCSCREGFMKASDGKTCLALDGHQLLAGGEVDLKNQVTPLDILSKTRVSEDNITESQHMLVAEIMVSDQDDCAPVGCSMYARCISEGEDATCQCLKGFAGDGKLCSDIDECEMGVPVCPPASSKCINTEGGYVCRCSEGYQGDGIHCLDIDECQLGEHSCGENASCTNTEGGYTCMCAGRLSEPGLICPDSTPPPHLREDDHHYSVRNSDSECPLSHDGYCLHDGVCMYIEALDKYACNCVVGYIGERCQYRDLKWWELRHAGHGQQQKVIVVAVCVVVLVMLLLLSLWGAHYYRTQKLLSKNPKNPYEESSRDVRSRRPADTEDGMSSCPQPWFVVIKEHQDLKNGGQPVAGEDGQAADGSMQPTSWRQEPQLCGMGTEQGCWIPVSSDKGSCPQVMERSFHMPSYGTQTLEGGVEKPHSLLSANPLWQQRALDPPHQMELTQ
# modifications: Pro-epidermal growth factor
# How the values were obtained:
# [1] = tested on: histone H3 Tyr99-phosphorylation (ACK1); test: Histone H3 Tyr99-phosphorylation in HEK293 cells (pY99-H3 immunoprecipitation / H3 immunoblot); type: cell-based; settings: HEK293 cells treated with EGF ligand
# Method: FIGS. 3A-3E show Ack1 phosphoryltes H3 at Tyr99 residue. […] (FIG. 3B) HEK293 cells co-expressing Myc-tagged Ack1 (WT) or KD mutant ACK1 and FLAG-tagged H3 or Y99F mutant […] were serum-starved (24h) and lysates were immunoprecipitated with pY99-H3 antibodies followed by immunoblotting with FLAG antibody (top panel). (FIG. 3C) HEK293 cells were treated with EGF ligand for indicated time points. Equal amounts of lysates were immunoprecipitated pY99-H3 antibodies followed by with immunoblotting with H3 antibody (top panel). (FIG. 3D) HEK293 cells were treated with ACK1 inhibitor, AIM-100 (5 uM overnight) and/or EGF ligand 20 min. Equal amounts of lysates were immunoprecipitated pY99-H3 antibodies followed by with immunoblotting with H3 antibody (top panel). […] (FIG. 3E) HEK293 cells were treated with increasing concentrations of AIM-100 (1, 2, 3 and 5 μM). Equal amounts of lysates were immunoprecipitated pY99-H3 antibodies followed by with immunoblotting with H3 antibody (top panel).
# The Tyrosine99 or Y99 site in H3 protein is evolutionarily conserved (FIG. 3A). To examine whether H3 is ACK1 kinase substrate, HEK293 cells were co-transfected with HA-tagged ACK1 and FLAG-tagged H3 or FLAG-tagged Y99F mutant H3 expressing constructs. ACK I specifically phosphorylated H3 protein, but not the Y99F mutant protein (FIG. 3B). […]
# SLC6A4 mRNA = SLC6A4 mRNA expression (real time RT-PCR); type: cell-based, human; settings: JAR cells treated with EGF ligand
# Method: The ratio of SLC6A4 to actin is shown. (FIG. 5D) JAR cells were treated with EGF ligand and ChIP was performed using pY99-H3 antibodies followed by quantitative PCR using primers corresponding to intron 2 (VNTR). […]
# Applicant also identified for the first time that human and mouse serotonin transporter (SLC6A4 or SERT or 5-HTT) gene expression is regulated by ACK1. A novel mechanism was identified that is operational in SLC6A4 gene regulation. ACK1 deposits pY99-H3 epigenetic marks in promoter (5-HTTLPR) and intron 2 (VNTR) of SLC6A4 gene to regulate its transcription. […] Without being bound by theory, applicant believes that expression of Gabra6, Slc6a2, Slc6a4, Slc6a5 and Oxt genes as well as genes shown in Table 2 are also regulated by ACK1/pY99-H3 epigenetic activity/signaling.
# [2] = tested on: pY99-H3 marks at SLC6A4 promoter (5-HTTLPR) and intron 2 (VNTR); test: ChIP with pY99-H3 antibodies and real time PCR at SLC6A4 gene in JAR cells; type: cell-based, human; settings: EGF treatment
# Method: (§1) FIGS. 5A-5D show ACK1 deposits pY99-H3 epigenetic marks in SLC6A4 promoter and intron 2. (FIG. 5A) Lysates prepared from JAR cells treated with EGF ligand were subjected to immunoblotting with indicated antibodies. (FIG. 5B) Lysates prepared from JAR cells treated with EGF or AIM-100 were subjected to immunoblotting with indicated antibodies. (FIG. 5C) Total RNA was prepared from JAR cells untreated or treated with EGF ligand followed by quantitative RT-PCR using SLC6A4 and actin primers. The ratio of SLC6A4 to actin is shown. (FIG. 5D) JAR cells were treated with EGF ligand and ChIP was performed using pY99-H3 antibodies followed by quantitative PCR using primers corresponding to intron 2 (VNTR).
# Applicant hypothesized that ACK1 deposits pY99-H3 epigenetic marks in promoter (5-HTTLPR) and intron 2 (VNTR) of SLC6A4 gene to regulate its transcription. To test this hypothesis, applicant performed chromatin immunoprecipitation (ChIP) with pY99-H3 antibodies followed by real time PCR for primers corresponding to promoter (5-HTTLPR) and intron 2 (VNTR) of SLC6A4 gene.
# [3] = tested on: histone H3 Tyr99-phosphorylation (ACK1); test: Histone H3 Tyr99-phosphorylation in JAR cells (immunoblotting); type: cell-based, human; settings: EGF alone
# Method: as §1
# (§2) JAR cells are human placenta-derived epithelial cells that express SLC6A4 or SERT. Applicant first assessed presence of ACK1 signaling in JAR cells by treating these cells with EGF ligand. […] ACK1 activation was also reflected in histone H3 Tyr99-phosphorylation (FIG. SA, 2nd panel).
# To validate critical role of ACK1 in histone H3 Tyr99-phosphoryation, JAR cells were treated with EGF or EGF+AIM-100.
# ACK1 = ACK1 activation (phosphorylation) in JAR cells, immunoblotting; type: cell-based, human; settings: 10 min of treatment
# Method: as §1, §2
molecule,measurement,setting,value
B1,endogenous H3 Tyr99-phosphorylation,[1],significant upregulation in endogenous H3 Tyr99-phosphorylation
same,SLC6A4 mRNA levels,SLC6A4 mRNA,significant increase in SLC64A mRNA levels
same,deposition of pY99-H3 marks at promoter (5-HTTLPR) and intron 2 (VNTR) of SLC6A4 gene,[2],significant increase in deposition of pY99-H3 marks
same,histone H3 Tyr99-phosphorylation,[3],significant upregulation of histone H3 Tyr99-phosphoryation
same,ACK1 activation (phosphorylation),ACK1,robust ACK1 activation
